In article PMC4615246 (Nucleus, 2015):

Assays:
Experiment in all cases: LacI/LacO array recruitment in cells
[1] = target: T1, LacI-CFP-Nup107 (human, UniProt P57740 1-925)
T1 sequence: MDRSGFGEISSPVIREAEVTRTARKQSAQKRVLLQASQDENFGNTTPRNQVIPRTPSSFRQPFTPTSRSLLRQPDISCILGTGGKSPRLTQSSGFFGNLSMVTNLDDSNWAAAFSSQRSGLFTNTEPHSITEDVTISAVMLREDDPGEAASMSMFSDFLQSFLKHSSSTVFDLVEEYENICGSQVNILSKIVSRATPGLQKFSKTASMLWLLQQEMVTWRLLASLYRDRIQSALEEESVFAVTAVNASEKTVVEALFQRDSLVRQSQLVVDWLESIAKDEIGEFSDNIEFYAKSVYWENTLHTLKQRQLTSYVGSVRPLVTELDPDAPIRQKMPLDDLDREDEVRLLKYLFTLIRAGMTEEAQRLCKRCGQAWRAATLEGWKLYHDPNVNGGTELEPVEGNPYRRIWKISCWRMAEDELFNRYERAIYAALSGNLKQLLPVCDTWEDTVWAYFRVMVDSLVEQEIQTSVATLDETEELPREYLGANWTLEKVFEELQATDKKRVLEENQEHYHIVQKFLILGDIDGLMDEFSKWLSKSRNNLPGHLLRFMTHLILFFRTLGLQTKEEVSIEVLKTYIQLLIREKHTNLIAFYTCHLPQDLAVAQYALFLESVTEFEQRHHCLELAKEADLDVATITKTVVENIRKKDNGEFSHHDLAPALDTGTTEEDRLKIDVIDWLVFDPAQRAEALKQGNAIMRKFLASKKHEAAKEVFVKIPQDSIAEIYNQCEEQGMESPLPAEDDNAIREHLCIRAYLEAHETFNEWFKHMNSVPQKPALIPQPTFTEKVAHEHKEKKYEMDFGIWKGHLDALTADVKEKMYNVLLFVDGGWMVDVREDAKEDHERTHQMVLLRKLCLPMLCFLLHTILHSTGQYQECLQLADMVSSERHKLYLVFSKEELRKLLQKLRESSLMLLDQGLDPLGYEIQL

[2] = target: T2, LacI-CFP-Nup153 (human, UniProt P49790 1-1475)
T2 sequence: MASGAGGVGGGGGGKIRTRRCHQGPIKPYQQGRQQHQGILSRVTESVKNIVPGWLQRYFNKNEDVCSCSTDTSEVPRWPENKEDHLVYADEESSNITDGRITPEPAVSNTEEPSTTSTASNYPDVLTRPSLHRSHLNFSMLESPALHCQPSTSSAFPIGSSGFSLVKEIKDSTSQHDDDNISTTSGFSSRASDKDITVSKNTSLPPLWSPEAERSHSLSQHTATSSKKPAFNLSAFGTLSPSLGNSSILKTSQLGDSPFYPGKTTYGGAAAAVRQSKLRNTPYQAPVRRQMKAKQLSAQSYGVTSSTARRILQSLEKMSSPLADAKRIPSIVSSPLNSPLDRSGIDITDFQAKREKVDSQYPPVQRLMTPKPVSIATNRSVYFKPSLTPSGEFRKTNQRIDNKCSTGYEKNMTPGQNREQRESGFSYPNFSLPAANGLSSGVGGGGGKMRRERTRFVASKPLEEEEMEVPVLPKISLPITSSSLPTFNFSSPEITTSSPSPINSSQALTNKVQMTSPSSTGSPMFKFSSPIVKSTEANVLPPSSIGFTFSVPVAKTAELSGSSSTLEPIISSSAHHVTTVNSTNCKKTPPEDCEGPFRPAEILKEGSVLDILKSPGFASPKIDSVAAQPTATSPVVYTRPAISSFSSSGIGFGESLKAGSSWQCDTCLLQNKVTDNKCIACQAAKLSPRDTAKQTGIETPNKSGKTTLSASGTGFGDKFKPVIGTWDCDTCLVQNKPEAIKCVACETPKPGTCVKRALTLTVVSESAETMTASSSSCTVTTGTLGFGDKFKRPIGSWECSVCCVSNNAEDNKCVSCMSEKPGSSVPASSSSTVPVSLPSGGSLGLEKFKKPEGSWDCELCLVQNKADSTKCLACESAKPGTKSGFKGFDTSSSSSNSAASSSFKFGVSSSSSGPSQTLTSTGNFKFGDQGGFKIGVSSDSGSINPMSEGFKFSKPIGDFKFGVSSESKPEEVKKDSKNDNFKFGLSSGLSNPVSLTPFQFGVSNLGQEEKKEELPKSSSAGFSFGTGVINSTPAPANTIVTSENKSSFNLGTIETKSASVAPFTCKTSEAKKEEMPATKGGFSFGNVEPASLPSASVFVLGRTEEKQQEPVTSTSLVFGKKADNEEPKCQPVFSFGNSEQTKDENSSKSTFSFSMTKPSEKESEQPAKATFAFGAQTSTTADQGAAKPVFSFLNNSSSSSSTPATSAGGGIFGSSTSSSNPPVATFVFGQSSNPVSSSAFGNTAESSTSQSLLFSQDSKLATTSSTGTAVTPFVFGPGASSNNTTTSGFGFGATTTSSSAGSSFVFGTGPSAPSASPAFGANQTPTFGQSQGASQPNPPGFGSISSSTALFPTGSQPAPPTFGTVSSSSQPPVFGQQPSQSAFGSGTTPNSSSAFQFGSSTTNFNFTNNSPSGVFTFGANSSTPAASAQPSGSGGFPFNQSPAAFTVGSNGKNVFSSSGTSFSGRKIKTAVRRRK

[3] = target: T3, LacI-CFP-Nup50 (human, UniProt Q9UKX7 1-468)
T3 sequence: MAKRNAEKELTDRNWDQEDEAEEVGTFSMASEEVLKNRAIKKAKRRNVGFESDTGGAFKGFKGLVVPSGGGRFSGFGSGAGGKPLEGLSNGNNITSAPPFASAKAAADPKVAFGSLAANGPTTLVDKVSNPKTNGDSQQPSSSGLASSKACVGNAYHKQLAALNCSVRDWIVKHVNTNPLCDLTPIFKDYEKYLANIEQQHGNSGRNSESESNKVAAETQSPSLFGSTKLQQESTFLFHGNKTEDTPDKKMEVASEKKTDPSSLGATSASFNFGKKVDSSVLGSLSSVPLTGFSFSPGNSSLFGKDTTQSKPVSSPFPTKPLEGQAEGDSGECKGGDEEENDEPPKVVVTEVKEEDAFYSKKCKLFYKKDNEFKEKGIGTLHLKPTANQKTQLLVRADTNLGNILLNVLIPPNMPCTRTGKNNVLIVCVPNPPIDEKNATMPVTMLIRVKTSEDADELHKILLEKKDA

[4] = target: LacI-CFP-Nup214 (human, UniProt P35658 1-2090)
Sequence of LacI-CFP-Nup214 (P35658 whole entry): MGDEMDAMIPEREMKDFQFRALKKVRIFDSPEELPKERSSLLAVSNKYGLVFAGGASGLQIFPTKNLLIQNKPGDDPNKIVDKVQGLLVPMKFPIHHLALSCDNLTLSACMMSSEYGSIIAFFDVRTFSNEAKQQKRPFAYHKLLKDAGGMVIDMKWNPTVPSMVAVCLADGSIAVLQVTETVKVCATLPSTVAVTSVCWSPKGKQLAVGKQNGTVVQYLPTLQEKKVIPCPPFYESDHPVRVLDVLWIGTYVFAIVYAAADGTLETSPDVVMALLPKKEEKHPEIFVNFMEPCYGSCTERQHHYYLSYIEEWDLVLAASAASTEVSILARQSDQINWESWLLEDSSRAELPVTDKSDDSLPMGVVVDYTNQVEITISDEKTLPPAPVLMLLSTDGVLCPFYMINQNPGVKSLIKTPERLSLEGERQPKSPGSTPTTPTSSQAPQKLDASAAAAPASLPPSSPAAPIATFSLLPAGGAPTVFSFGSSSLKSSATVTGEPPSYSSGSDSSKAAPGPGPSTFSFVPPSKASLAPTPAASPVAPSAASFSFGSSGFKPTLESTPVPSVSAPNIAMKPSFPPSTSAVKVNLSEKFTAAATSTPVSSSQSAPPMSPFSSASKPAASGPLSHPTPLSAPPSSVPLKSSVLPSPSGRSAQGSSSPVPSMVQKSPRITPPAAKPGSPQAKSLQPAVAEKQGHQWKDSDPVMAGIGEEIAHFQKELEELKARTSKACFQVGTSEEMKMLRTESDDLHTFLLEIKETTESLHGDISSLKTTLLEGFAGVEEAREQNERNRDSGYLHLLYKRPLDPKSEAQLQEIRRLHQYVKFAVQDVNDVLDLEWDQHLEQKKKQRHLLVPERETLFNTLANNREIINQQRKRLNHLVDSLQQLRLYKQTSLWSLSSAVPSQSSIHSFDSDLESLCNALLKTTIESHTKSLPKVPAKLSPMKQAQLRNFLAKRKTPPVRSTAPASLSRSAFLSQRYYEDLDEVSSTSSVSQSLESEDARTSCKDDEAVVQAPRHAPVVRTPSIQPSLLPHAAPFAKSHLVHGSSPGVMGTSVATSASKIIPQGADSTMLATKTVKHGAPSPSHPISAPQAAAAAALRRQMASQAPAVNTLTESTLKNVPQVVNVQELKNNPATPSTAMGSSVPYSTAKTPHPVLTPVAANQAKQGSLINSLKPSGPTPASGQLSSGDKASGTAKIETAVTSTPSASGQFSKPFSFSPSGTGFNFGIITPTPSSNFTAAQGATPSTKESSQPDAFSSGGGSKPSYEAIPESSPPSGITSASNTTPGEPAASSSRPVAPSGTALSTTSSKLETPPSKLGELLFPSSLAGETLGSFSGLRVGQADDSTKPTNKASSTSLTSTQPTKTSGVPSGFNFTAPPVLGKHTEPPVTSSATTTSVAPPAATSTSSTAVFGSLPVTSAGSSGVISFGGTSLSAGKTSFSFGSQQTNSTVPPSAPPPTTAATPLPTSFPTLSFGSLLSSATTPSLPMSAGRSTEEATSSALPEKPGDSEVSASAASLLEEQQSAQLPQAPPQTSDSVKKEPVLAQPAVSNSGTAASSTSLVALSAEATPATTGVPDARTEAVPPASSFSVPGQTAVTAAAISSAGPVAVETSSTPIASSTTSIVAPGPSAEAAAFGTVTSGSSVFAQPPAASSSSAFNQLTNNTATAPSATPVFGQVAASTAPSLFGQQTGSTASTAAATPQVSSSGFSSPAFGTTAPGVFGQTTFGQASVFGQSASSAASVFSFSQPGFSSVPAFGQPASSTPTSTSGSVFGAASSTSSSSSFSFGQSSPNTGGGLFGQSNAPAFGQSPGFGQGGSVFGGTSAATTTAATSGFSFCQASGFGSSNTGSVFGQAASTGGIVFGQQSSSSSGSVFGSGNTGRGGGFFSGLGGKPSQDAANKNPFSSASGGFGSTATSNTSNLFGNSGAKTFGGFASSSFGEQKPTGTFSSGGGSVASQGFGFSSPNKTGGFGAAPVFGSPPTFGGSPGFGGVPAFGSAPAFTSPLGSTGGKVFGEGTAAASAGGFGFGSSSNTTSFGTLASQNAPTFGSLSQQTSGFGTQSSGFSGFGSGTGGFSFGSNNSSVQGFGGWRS

B1: Nup133 (endogenous) (natural protein)
chain: MFPAAPSPRTPGTGSRRGPLAGLGPGSTPRTASRKGLPLGSAVSSPVLFSPVGRRSSLSSRGTPTRMFPHHSITESVNYDVKTFGSSLPVKVMEALTLAEVDDQLTINIDEGGWACLVCKEKLIIWKIALSPITKLSVCKELQLPPSDFHWSADLVALSYSSPSGEAHSTQAVAVMVATREGSIRYWPSLAGEDTYTEAFVDSGGDKTYSFLTAVQGGSFILSSSGSQLIRLIPESSGKIHQHILPQGQGMLSGIGRKVSSLFGILSPSSDLTLSSVLWDRERSSFYSLTSSNISKWELDDSSEKHAYSWDINRALKENITDAIWGSESNYEAIKEGVNIRYLDLKQNCDGLVILAAAWHSADNPCLIYYSLITIEDNGCQMSDAVTVEVTQYNPPFQSEDLILCQLTVPNFSNQTAYLYNESAVYVCSTGTGKFSLPQEKIVFNAQGDSVLGAGACGGVPIIFSRNSGLVSITSRENVSILAEDLEGSLASSVAGPNSESMIFETTTKNETIAQEDKIKLLKAAFLQYCRKDLGHAQMVVDELFSSHSDLDSDSELDRAVTQISVDLMDDYPASDPRWAESVPEEAPGFSNTSLIILHQLEDKMKAHSFLMDFIHQVGLFGRLGSFPVRGTPMATRLLLCEHAEKLSAAIVLKNHHSRLSDLVNTAILIALNKREYEIPSNLTPADVFFREVSQVDTICECLLEHEEQVLRDAPMDSIEWAEVVINVNNILKDMLQAASHYRQNRNSLYRREESLEKEPEYVPWTATSGPGGIRTVIIRQHEIVLKVAYPQADSNLRNIVTEQLVALIDCFLDGYVSQLKSVDKSSNRERYDNLEMEYLQKRSDLLSPLLSLGQYLWAASLAEKYCDFDILVQMCEQTDNQSRLQRYMTQFADQNFSDFLFRWYLEKGKRGKLLSQPISQHGQLANFLQAHEHLSWLHEINSQELEKAHATLLGLANMETRYFAKKKTLLGLSKLAALASDFSEDMLQEKIEEMAEQERFLLHQETLPEQLLAEKQLNLSAMPVLTAPQLIGLYICEENRRANEYDFKKALDLLEYIDEEEDININDLKLEILCKALQRDNWSSSDGKDDPIEVSKDSIFVKILQKLLKDGIQLSEYLPEVKDLLQADQLGSLKSNPYFEFVLKANYEYYVQGQI
- percent of transfected cells showing colocalization [1]: 94%
- percent of transfected cells showing colocalization [2]: 35%
- percent of transfected cells showing colocalization [3]: 11%
- percent of transfected cells showing colocalization [4]: 35%
